# Experimental data published in patent US20230257470A1 (published 2023).
# Substitutions are numbered along the chain they refer to.
# T1: human FcγRIIa(R) (human, UniProt P12318 36-217)
# T1 construct: also called FcgRIIaR; FcγRIIa type R
# T1 chain: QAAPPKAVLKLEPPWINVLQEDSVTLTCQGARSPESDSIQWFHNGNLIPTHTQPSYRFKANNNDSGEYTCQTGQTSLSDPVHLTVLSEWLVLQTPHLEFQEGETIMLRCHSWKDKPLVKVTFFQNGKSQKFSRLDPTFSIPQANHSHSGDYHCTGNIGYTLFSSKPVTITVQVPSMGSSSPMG
# T2: human FcγRIIa(H) (human, UniProt P12318 36-217)
# T2 construct: also called FcgRIIaH; FcγRIIa type H
# T2 sequence: T1 chain with R133H
# T3: human FcγRIIb (human, UniProt P31994 43-217, limits assumed)
# T3 construct: also called FcgRIIb; FcγIIB
# T3 sequence: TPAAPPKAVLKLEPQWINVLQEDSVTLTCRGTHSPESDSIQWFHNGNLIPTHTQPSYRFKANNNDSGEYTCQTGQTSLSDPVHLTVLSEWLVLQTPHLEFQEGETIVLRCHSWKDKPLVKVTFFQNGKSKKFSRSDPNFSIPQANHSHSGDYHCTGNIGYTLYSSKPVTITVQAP
# B1: GpH7-B3/GpL16-k0 variant P271H (antibody, human IgG1)
# heavy: not shown
# light: DIVMTQSPLSLPVTPGEPASISCQASESLVHSNRNTYLHWYLQKPGQSPQLLIYKVSNRFSGVPDRFSGSGSGTDFTLKISRVEAEDVGVYYCSQNTHVPPTFGQGTKVEIE
# notes: also called B3 variant; copies: 2 + 2
# B2: GpH7-B3/GpL16-k0 variant P271R (antibody, human IgG1)
# heavy: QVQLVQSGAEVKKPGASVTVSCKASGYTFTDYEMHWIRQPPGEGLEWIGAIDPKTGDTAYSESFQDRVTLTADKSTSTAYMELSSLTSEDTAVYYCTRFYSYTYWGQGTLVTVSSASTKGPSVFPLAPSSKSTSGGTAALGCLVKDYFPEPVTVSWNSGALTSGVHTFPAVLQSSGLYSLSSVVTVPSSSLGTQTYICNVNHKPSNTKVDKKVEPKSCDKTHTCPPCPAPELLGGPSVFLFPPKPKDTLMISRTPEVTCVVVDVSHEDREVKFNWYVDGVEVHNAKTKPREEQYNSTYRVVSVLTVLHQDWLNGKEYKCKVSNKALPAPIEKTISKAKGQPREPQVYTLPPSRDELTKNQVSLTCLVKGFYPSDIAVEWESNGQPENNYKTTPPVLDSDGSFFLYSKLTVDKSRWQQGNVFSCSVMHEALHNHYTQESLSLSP
# light: B1 light
# notes: as for B1
# B3: GpH7-B3/GpL16-k0 variant Y296R (antibody, human IgG1)
# heavy: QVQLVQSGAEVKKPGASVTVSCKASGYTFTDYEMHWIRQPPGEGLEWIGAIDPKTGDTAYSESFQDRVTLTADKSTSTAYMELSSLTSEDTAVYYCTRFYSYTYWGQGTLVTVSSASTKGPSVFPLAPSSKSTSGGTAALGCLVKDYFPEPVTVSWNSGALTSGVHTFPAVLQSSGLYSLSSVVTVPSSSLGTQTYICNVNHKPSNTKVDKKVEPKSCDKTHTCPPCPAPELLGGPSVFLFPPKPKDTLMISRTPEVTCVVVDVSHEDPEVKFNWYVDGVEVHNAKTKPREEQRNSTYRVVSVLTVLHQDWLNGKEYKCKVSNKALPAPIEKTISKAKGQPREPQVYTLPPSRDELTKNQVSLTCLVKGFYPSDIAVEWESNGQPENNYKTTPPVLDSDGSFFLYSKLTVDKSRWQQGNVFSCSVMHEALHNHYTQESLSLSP
# light: B1 light
# notes: as for B1
# B4: GpH7-B3/GpL16-k0 variant Q295F (antibody, human IgG1)
# heavy: not shown
# light: B1 light
# notes: as for B1
# B5: GpH7-B3/GpL16-k0 variant S298G (antibody, human IgG1)
# heavy: not shown
# light: B1 light
# notes: as for B1
# B6: GpH7-B3/GpL16-k0 variant Y296K (antibody, human IgG1)
# heavy: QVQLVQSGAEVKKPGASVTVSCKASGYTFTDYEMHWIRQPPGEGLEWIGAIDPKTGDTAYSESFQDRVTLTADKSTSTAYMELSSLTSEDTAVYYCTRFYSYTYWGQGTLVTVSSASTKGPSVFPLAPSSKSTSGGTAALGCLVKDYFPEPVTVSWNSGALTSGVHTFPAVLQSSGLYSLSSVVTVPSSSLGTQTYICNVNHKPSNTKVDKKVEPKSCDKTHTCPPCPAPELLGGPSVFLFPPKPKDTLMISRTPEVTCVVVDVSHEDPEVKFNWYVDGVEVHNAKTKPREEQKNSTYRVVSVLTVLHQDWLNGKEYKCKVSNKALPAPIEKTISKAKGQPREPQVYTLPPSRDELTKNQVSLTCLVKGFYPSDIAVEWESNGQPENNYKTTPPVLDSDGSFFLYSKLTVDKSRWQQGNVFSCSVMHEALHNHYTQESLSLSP
# light: B1 light
# notes: as for B1
# B7: GpH7-B3/GpL16-k0 variant Q295D (antibody, human IgG1)
# heavy: not shown
# light: B1 light
# notes: as for B1
# B8: GpH7-B3/GpL16-k0 variant Q295R (antibody, human IgG1)
# heavy: not shown
# light: B1 light
# notes: as for B1
# B9: GpH7-B3/GpL16-k0 variant S298P (antibody, human IgG1)
# heavy: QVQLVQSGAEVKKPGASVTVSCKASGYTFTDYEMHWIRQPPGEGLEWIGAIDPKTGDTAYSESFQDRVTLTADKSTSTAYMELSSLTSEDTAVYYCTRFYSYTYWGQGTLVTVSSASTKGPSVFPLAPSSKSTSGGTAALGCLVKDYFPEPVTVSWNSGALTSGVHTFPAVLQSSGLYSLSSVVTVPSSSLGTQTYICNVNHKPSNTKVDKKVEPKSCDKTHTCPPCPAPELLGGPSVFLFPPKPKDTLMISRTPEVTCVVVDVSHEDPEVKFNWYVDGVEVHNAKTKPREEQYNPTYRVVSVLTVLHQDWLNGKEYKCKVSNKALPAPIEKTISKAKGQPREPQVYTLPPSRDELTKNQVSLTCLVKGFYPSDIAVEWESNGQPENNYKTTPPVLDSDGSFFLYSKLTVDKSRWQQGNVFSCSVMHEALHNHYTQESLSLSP
# light: B1 light
# notes: as for B1
# B10: GpH7-B3/GpL16-k0 variant S298Y (antibody, human IgG1)
# heavy: not shown
# light: B1 light
# notes: as for B1
# B11: GpH7-B3/GpL16-k0 variant P271W (antibody, human IgG1)
# heavy: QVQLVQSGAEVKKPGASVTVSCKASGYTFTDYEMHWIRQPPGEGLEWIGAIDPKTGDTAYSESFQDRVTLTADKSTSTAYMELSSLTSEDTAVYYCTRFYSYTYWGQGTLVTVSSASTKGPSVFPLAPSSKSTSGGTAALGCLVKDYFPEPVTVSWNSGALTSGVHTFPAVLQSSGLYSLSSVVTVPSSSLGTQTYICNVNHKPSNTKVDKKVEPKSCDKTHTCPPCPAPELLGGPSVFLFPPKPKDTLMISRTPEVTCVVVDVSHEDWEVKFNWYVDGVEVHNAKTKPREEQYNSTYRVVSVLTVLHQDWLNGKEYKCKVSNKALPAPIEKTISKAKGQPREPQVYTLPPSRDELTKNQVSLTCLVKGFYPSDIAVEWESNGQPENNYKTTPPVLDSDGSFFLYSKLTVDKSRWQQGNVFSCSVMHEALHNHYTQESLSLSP
# light: B1 light
# notes: as for B1
# B12: GpH7-B3/GpL16-k0 variant P271T (antibody, human IgG1)
# heavy: not shown
# light: B1 light
# notes: as for B1
# B13: GpH7-B3/GpL16-k0 variant Q295S (antibody, human IgG1)
# heavy: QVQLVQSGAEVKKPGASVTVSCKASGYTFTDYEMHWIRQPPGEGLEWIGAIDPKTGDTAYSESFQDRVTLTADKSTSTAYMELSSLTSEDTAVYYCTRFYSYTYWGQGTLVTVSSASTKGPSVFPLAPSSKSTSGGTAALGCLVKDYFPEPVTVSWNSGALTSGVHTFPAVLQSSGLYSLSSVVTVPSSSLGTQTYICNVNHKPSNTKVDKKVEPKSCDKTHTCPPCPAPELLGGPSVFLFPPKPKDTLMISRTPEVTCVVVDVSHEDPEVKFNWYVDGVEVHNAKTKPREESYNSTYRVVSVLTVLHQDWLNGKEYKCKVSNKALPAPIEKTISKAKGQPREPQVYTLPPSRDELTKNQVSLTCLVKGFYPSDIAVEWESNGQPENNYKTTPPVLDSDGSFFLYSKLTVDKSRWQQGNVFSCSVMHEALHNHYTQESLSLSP
# light: B1 light
# notes: as for B1
# B14: GpH7-B3/GpL16-k0 variant Q295G (antibody, human IgG1)
# heavy: not shown
# light: B1 light
# notes: as for B1
# B15: GpH7-B3/GpL16-k0 variant Q295N (antibody, human IgG1)
# heavy: not shown
# light: B1 light
# notes: as for B1
# B16: GpH7-B3/GpL16-k0 variant P271S (antibody, human IgG1)
# heavy: not shown
# light: B1 light
# notes: as for B1
# B17: GpH7-B3/GpL16-k0 variant S298R (antibody, human IgG1)
# heavy: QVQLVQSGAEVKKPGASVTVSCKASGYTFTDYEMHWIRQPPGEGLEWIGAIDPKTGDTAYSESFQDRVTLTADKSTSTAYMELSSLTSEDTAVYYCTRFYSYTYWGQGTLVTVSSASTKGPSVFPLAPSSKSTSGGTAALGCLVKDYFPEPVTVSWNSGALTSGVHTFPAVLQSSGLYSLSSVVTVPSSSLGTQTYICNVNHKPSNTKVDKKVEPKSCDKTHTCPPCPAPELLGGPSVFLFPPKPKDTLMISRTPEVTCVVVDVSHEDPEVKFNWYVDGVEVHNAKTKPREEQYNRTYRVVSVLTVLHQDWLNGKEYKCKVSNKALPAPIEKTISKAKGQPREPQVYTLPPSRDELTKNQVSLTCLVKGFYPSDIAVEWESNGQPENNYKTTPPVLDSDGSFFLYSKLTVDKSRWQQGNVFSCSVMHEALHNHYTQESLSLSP
# light: B1 light
# notes: as for B1
# B18: GpH7-B3/GpL16-k0 variant Q295W (antibody, human IgG1)
# heavy: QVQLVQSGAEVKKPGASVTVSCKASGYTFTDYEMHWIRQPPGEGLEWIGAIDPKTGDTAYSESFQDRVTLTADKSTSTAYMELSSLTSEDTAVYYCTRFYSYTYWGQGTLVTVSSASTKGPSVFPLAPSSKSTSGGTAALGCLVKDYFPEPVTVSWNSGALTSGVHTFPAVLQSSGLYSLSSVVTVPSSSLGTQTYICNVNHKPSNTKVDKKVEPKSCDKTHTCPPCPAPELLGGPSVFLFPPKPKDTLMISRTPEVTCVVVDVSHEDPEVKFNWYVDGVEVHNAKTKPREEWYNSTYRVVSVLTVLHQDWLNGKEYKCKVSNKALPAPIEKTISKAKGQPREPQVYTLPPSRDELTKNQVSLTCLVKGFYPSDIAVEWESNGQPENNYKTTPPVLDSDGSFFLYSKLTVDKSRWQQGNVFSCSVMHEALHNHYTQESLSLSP
# light: B1 light
# notes: as for B1
# B19: GpH7-B3/GpL16-k0 variant Q295Y (antibody, human IgG1)
# heavy: not shown
# light: B1 light
# notes: as for B1
# B20: GpH7-B3/GpL16-k0 variant S298K (antibody, human IgG1)
# heavy: not shown
# light: B1 light
# notes: as for B1
# B21: GpH7-B3/GpL16-k0 variant P271Y (antibody, human IgG1)
# heavy: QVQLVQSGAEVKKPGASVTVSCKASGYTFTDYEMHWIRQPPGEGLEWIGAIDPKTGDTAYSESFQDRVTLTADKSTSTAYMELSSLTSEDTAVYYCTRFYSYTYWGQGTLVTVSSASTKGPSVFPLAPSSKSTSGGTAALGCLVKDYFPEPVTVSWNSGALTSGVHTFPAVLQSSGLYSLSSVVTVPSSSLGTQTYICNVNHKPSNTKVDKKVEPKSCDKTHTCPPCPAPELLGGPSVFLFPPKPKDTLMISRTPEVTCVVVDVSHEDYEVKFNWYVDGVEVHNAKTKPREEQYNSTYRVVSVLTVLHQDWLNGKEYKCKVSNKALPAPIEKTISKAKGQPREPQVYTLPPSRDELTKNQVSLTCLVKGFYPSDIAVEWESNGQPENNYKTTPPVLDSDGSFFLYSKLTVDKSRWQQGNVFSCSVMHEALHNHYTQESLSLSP
# light: B1 light
# notes: as for B1
# B22: GpH7-B3/GpL16-k0 variant Q295H (antibody, human IgG1)
# heavy: not shown
# light: B1 light
# notes: as for B1
# B23: GpH7-B3/GpL16-k0 variant Y296G (antibody, human IgG1)
# heavy: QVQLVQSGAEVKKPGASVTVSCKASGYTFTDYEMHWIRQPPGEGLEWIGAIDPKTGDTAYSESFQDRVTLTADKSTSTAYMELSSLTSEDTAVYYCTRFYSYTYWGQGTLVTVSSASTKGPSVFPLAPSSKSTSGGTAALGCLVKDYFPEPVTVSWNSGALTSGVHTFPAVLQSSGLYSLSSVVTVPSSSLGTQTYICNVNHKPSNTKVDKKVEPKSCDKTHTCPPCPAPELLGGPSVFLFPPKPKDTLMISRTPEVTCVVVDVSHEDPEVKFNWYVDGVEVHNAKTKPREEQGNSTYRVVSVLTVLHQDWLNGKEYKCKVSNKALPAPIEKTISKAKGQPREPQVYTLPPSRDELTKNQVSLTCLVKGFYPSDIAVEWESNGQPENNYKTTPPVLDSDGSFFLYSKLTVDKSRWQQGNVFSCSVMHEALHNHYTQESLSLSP
# light: B1 light
# notes: as for B1
# Target: T4, human FcγRIa (human, UniProt P12314 16-292, limits assumed)
# T4 construct: also called FcgRIa; CD64
# T4 sequence (P12314 16-292 limits assumed): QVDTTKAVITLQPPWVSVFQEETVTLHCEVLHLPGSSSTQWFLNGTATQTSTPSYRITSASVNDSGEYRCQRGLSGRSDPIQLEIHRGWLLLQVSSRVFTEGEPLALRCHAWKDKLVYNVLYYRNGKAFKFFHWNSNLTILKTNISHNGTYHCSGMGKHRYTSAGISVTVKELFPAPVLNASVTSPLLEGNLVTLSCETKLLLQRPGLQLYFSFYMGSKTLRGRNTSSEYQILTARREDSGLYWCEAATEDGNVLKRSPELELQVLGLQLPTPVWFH
# Assay: SPR (Biacore), antibody captured, FcγR as analyte; amount bound / that of GpH7-B3/GpL16-k0 x 100;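 note: FcγR binding response divided by the captured antibody amount before comparison, measured at 25 °C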
# Procedure: (§1) Interaction between each modified antibody and Fcγ receptor prepared in the manner described above was analyzed using the BIACORE™ T100 surface plasmon resonance system (GE Healthcare), BIACORE™ T200 surface plasmon resonance system (GE Healthcare), BIACORE™ A100 surface plasmon resonance system or BIACORE™ 4000 surface plasmon resonance system. HBS-EP+(GE Healthcare) was used for the running buffer, and measurements were carried out at 25° C. The chips used were chips in which antigen peptides, Protein A (Thermo Scientific), Protein A/G (Thermo Scientific) or Protein L (ACTIGEN® protein (Alltech or BioVision) were immobilized on the Series S Sensor Chip CM5 (GE Healthcare) or Series S Sensor Chip CM4 (GE Healthcare) by amine coupling, or chips in which preliminarily biotinylated antigen peptides were allowed to interact and then immobilized on the Series S Sensor Chip SA (certified) (GE Healthcare). The target antibodies were captured on these sensor chips, Fcγ receptor diluted with the running buffer was allowed to interact, followed by measurement of the amount of bound antibody. The amounts bound were compared between antibodies. However, since the amount of Fcγ receptor bound depends on the amount of captured antibody, the values used for comparison were first corrected by dividing the amount of Fcγ receptor bound by the captured amount of each antibody. Through reaction with 10 mM glycine-HCl at pH 1.5, the sensor chips were regenerated by washing off antibody captured on the sensor chips and used repeatedly.
# (§2) Binding strength was evaluated according to the following method based on the results of analyzing the interaction with each FcγR. […] That value was then further multiplied by 100, and the resulting value was used as an indicator of relative binding activity to each FcγR.
row,relative binding activity [GpH7-B3/GpL16-k0 = 100],Binder
1,98,B1
2,100,B2
3,100,B3
4,99,B4
5,100,B5
6,99,B6
7,95,B7
8,100,B8
9,15,B9
10,100,B10
11,100,B11
12,98,B12
13,100,B13
14,89,B14
15,99,B15
16,99,B16
17,92,B17
18,81,B18
19,95,B19
20,88,B20
21,98,B21
22,97,B22
23,100,B23

# Target: T1, human FcγRIIa(R)
# Assay: as above
# Procedure: as §1, §2
row,relative binding activity [GpH7-B3/GpL16-k0 = 100],Binder
1,58,B1
2,89,B2
3,77,B3
4,46,B4
5,89,B5
6,70,B6
7,43,B7
8,61,B8
9,0,B9
10,33,B10
11,46,B11
12,73,B12
13,52,B13
14,36,B14
15,56,B15
16,83,B16
17,62,B17
18,26,B18
19,38,B19
20,79,B20
21,38,B21
22,45,B22
23,77,B23

# Target: T2, human FcγRIIa(H)
# Assay: as above
# Procedure: as §1, §2
row,relative binding activity [GpH7-B3/GpL16-k0 = 100],Binder
1,58,B1
2,99,B2
3,74,B3
4,74,B4
5,43,B5
6,66,B6
7,37,B7
8,94,B8
9,0,B9
10,35,B10
11,75,B11
12,42,B12
13,67,B13
14,41,B14
15,74,B15
16,67,B16
17,36,B17
18,38,B18
19,70,B19
20,38,B20
21,48,B21
22,78,B22
23,83,B23

# Target: T3, human FcγRIIb
# Assay: as above
# Procedure: as §1, §2
row,relative binding activity [GpH7-B3/GpL16-k0 = 100],Binder
1,53,B1
2,87,B2
3,52,B3
4,30,B4
5,68,B5
6,45,B6
7,40,B7
8,46,B8
9,-1,B9
10,23,B10
11,33,B11
12,78,B12
13,40,B13
14,28,B14
15,41,B15
16,82,B16
17,22,B17
18,16,B18
19,24,B19
20,34,B20
21,28,B21
22,29,B22
23,58,B23

# Target: T5, human FcγRIIIa(F) (human, UniProt P08637 17-208, limits assumed)
# T5 construct: also called FcgRIIIaF; FcγRIIIa allotype F158
# T5 sequence (P08637 other isoform, or with tags, fused parts or gaps limits assumed): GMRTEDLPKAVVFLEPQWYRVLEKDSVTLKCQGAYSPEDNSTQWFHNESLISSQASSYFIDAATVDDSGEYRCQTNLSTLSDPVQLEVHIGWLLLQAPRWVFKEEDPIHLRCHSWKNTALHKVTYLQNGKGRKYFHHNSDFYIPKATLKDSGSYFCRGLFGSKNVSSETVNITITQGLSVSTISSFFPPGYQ
# Assay: as above
# Procedure: as §1, §2
row,relative binding activity [GpH7-B3/GpL16-k0 = 100],Binder
1,50,B1
2,76,B2
3,38,B3
4,46,B4
5,59,B5
6,21,B6
7,64,B7
8,52,B8
9,0,B9
10,71,B10
11,57,B11
12,31,B12
13,87,B13
14,55,B14
15,68,B15
16,62,B16
17,20,B17
18,10,B18
19,49,B19
20,25,B20
21,33,B21
22,52,B22
23,21,B23
